From FireProtDB (doi:10.1074/jbc.m111.277210)
Values joined by “and” are separate entries in the source; they are usually repeats but may differ in a detail not shown here. Equal entries are not always repeated.

B1: S247A, Q72SM7 (parent)
chain: MKKLSILAISVALFASITACGAFGGLPSLKSSFVLSEDTIPGTNETVKTLLPYGSVINYYGYVKPGQAPDGLVDGNKKAYYLYVWIPAVIAEMGVRMISPTGEIGEPGDGDLVSDAFKAATPEEKSMPHWFDTWIRVERMSAIMPDQIAKAAKAKPVQKLDDDDDGDDTYKEERHNKYNSLTRIKIPNPPKSFDDLKNIDTKKLLVRGLYRISFTTYKPGEVKGSFVASVGLLFPPGIPGVSPLIHSNPEELQKQAIAAEESLKKAASDATK

Variants of: B1
Details: Leptospira interrogans serogroup Icterohaemorrhagiae serovar copenhageni (strain Fiocruz L1-130); pH 8; Thermal; CD; Tris-HCl; KCl; structure 3FRL; whole UniProt chain shown

Variant	change of melting temperature, mutant - wild type (higher = more stable)	Tm
S247A	0 °C and -1 °C	–
D163A D164A D165A G166A D167A D168A	–	51 °C and 52 °C
Q67A	0 °C	–
